Assay results reported in patent US20020012964.

Columns and labels:
[1] = target: T1, GST-cdc25c (200 to 250 amino acids) (UniProt P30307)
T1 sequence: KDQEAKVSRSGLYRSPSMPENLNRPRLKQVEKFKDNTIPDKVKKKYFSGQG

[2] = target: T2, GST-cdc25c (full-length) (Accession number L26584) (UniProt P30307)
T2 sequence: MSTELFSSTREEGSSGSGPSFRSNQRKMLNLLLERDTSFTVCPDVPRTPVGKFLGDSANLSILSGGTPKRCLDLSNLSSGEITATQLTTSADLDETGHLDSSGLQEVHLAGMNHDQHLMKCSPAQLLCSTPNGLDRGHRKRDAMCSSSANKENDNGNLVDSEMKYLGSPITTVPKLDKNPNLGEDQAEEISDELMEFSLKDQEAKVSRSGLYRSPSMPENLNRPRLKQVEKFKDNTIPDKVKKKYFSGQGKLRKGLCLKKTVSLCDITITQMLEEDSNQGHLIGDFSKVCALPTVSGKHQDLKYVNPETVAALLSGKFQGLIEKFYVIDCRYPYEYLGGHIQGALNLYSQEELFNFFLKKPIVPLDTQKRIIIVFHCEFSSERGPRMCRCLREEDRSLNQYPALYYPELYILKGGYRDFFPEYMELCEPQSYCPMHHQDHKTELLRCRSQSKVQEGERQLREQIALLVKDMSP

[3] = target: GST-weel (Accession number U10564) (UniProt P30291)
[4] = test system: histone H1 (J. Biochem. 100, 359, 1986)
[5] = target: T3, human Chk1 (Accession number AF016582) protein prepared as a fusion protein with glutathione S-transferase (GST) (UniProt O14757)
T3 sequence: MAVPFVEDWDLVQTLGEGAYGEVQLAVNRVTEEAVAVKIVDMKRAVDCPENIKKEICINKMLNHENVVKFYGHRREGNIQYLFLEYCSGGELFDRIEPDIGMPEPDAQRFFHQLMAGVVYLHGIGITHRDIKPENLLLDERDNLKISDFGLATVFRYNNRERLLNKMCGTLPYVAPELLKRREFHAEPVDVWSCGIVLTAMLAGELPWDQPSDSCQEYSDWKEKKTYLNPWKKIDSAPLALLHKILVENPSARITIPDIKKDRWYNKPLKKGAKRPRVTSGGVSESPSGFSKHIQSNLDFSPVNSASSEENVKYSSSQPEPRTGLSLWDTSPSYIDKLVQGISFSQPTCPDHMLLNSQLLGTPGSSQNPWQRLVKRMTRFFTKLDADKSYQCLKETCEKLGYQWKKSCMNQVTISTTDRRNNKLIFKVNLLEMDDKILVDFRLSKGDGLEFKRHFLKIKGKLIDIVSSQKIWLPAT

Sequence of GST-weel (Accession number U10564) (P30291 whole entry, looked up): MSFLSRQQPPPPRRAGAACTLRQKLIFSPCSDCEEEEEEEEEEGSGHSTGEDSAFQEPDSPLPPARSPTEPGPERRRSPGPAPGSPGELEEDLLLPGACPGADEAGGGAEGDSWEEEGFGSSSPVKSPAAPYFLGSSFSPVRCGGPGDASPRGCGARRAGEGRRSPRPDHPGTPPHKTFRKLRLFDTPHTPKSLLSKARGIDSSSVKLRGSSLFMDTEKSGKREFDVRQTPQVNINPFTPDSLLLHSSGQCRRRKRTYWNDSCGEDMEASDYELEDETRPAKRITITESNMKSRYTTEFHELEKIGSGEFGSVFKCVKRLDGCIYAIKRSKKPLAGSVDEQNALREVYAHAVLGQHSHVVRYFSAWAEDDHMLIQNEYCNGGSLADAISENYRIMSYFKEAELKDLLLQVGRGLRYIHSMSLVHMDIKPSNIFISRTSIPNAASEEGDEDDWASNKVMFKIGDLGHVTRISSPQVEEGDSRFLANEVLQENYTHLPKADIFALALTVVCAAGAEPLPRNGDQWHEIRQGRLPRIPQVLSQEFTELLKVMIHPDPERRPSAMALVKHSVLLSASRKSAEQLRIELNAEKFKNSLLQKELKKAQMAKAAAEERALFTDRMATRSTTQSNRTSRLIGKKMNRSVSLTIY

| Substance | in vitro kinase assay ([gamma-32P]ATP, SDS-PAGE, autoradiography) [1] | in vitro kinase assay ([gamma-32P]ATP, SDS-PAGE, autoradiography) [2] | in vitro kinase assay ([gamma-32P]ATP, SDS-PAGE, autoradiography) [3] | in vitro kinase assay ([gamma-32P]ATP, SDS-PAGE, autoradiography) [4] | in vitro kinase assay ([gamma-32P]ATP, SDS-PAGE, autoradiography) [5] |
| --- | --- | --- | --- | --- | --- |
| hCds1 KM mutant (249th lysine converted to methionine, myc/6xHis-tagged, expressed in Sf9 cells) | failed to phosphorylate any substrate | failed to phosphorylate any substrate | failed to phosphorylate any substrate | failed to phosphorylate any substrate | failed to phosphorylate any substrate |
| recombinant "hCds1" (human Cds1, wild type, myc/6xHis-tagged, expressed in Sf9 cells) | efficiently phosphorylated | efficiently phosphorylated | hardly phosphorylated | efficiently phosphorylated | hardly phosphorylated |
